The record followed here is US20190345228A1 (DUKE UNIVERSITY, published 2019).

The target in this assay is TNF-related apoptosis-inducing ligand receptor 2 (TRAILR-2) (human, UniProt O14763 56-440). The assay can be described thus: cell-based or functional assay.

B1: ELPa-(Tn3)6 (designed binder)
chain: VGVPGVGVPGVGVPGVGVPGVGVPGVGVPGVGVPGVGVPGVGVPGVGVPGVGVPGVGVPGVGVPGVGVPGVGVPGVGVPGVGVPGVGVPGVGVPGVGVPGVGVPGVGVPGVGVPGVGVPGVGVPGVGVPGVGVPGVGVPGVGVPGVGVPGVGVPGVGVPGVGVPGVGVPGVGVPGVGVPGVGVPGVGVPGVGVPGVGVPGVGVPGVGVPGVGVPGVGVPGVGVPGVGVPGVGVPGVGVPGVGVPGVGVPGVGVPGVGVPGVGVPGVGVPGVGVPGVGVPGVGVPGVGVPGVGVPGVGVPGVGVPGVGVPGVGVPGVGVPGVGVPGVGVPGVGVPGVGVPGVGVPGVGVPGVGVPGVGVPGVGVPGVGVPGVGVPGVGVPGVGVPGVGVPGVGVPGVGVPGVGVPGVGVPGVGVPGVGVPGVGVPGVGVPGVGVPGVGVPGVGVPGVGVPGVGVPGVGVPGVGVPGVGVPGVGVPGVGVPGVGVPGVGVPGVGVPGVGVPGVGVPGVGVPGVGVPGVGVPGVGVPGVGVPGVGVPGVGVPGVGVPGVGVPGVGVPGVGVPGVGVPGVGVPGVGVPGVGVPGVGVPGVGVPGVGVPGVGVPGAIEVKDVTDTTALITWAKPWVDPPPLWGCELTYGIKDVPGDRTTIDLQQKHTAYSIGNLKPDTEYEVSLICFDPYGMRSKPAKETFTTGGGGSGGGGSGGGGSGAIEVKDVTDTTALITWAKPWVDPPPLWGCELTYGIKDVPGDRTTIDLQQKHTAYSIGNLKPDTEYEVSLICFDPYGMRSKPAKETFTTGGGGSGGGGSGGGGSGAIEVKDVTDTTALITWAKPWVDPPPLWGCELTYGIKDVPGDRTTIDLQQKHTAYSIGNLKPDTEYEVSLICFDPYGMRSKPAKETFTTGGGGSGGGGSGGGGSGAIEVKDVTDTTALITWAKPWVDPPPLWGCELTYGIKDVPGDRTTIDLQQKHTAYSIGNLKPDTEYEVSLICFDPYGMRSKPAKETFTTGGGGSGGGGSGGGGSGAIEVKDVTDTTALITWAKPWVDPPPLWGCELTYGIKDVPGDRTTIDLQQKHTAYSIGNLKPDTEYEVSLICFDPYGMRSKPAKETFTTGGGGSGGGGSGGGGSGAIEVKDVTDTTALITWAKPWVDPPPLWGCELTYGIKDVPGDRTTIDLQQKHTAYSIGNLKPDTEYEVSLICFDPYGMRSKPAKETFTTGGGGSGGGGSGGGGS
For B1, the “EC50, cell viability assay on Colo205 cells (concentration required to kill 50% of the cells)” value was 0.00078 nM.

B2: (Tn3)4 (designed binder)
chain: GAIEVKDVTDTTALITWAKPWVDPPPLWGCELTYGIKDVPGDRTTIDLQQKHTAYSIGNLKPDTEYEVSLICFDPYGMRSKPAKETFTTGGGGSGGGGSGGGGSGAIEVKDVTDTTALITWAKPWVDPPPLWGCELTYGIKDVPGDRTTIDLQQKHTAYSIGNLKPDTEYEVSLICFDPYGMRSKPAKETFTTGGGGSGGGGSGGGGSGAIEVKDVTDTTALITWAKPWVDPPPLWGCELTYGIKDVPGDRTTIDLQQKHTAYSIGNLKPDTEYEVSLICFDPYGMRSKPAKETFTTGGGGSGGGGSGGGGSGAIEVKDVTDTTALITWAKPWVDPPPLWGCELTYGIKDVPGDRTTIDLQQKHTAYSIGNLKPDTEYEVSLICFDPYGMRSKPAKETFTTGGGGSGGGGSGGGGS
In the case of B2, the “EC50, cell viability assay on Colo205 cells (concentration required to kill 50% of the cells)” value was determined as 0.04 nM.

B3: (Tn3)6 (designed binder)
chain: GAIEVKDVTDTTALITWAKPWVDPPPLWGCELTYGIKDVPGDRTTIDLQQKHTAYSIGNLKPDTEYEVSLICFDPYGMRSKPAKETFTTGGGGSGGGGSGGGGSGAIEVKDVTDTTALITWAKPWVDPPPLWGCELTYGIKDVPGDRTTIDLQQKHTAYSIGNLKPDTEYEVSLICFDPYGMRSKPAKETFTTGGGGSGGGGSGGGGSGAIEVKDVTDTTALITWAKPWVDPPPLWGCELTYGIKDVPGDRTTIDLQQKHTAYSIGNLKPDTEYEVSLICFDPYGMRSKPAKETFTTGGGGSGGGGSGGGGSGAIEVKDVTDTTALITWAKPWVDPPPLWGCELTYGIKDVPGDRTTIDLQQKHTAYSIGNLKPDTEYEVSLICFDPYGMRSKPAKETFTTGGGGSGGGGSGGGGSGAIEVKDVTDTTALITWAKPWVDPPPLWGCELTYGIKDVPGDRTTIDLQQKHTAYSIGNLKPDTEYEVSLICFDPYGMRSKPAKETFTTGGGGSGGGGSGGGGSGAIEVKDVTDTTALITWAKPWVDPPPLWGCELTYGIKDVPGDRTTIDLQQKHTAYSIGNLKPDTEYEVSLICFDPYGMRSKPAKETFTTGGGGSGGGGSGGGGS
Take B3: the “EC50, cell viability assay on Colo205 cells (concentration required to kill 50% of the cells)” value stood at 0.0016 nM.

B4: ELPa-(Tn3)4 (designed binder)
chain: VGVPGVGVPGVGVPGVGVPGVGVPGVGVPGVGVPGVGVPGVGVPGVGVPGVGVPGVGVPGVGVPGVGVPGVGVPGVGVPGVGVPGVGVPGVGVPGVGVPGVGVPGVGVPGVGVPGVGVPGVGVPGVGVPGVGVPGVGVPGVGVPGVGVPGVGVPGVGVPGVGVPGVGVPGVGVPGVGVPGVGVPGVGVPGVGVPGVGVPGVGVPGVGVPGVGVPGVGVPGVGVPGVGVPGVGVPGVGVPGVGVPGVGVPGVGVPGVGVPGVGVPGVGVPGVGVPGVGVPGVGVPGVGVPGVGVPGVGVPGVGVPGVGVPGVGVPGVGVPGVGVPGVGVPGVGVPGVGVPGVGVPGVGVPGVGVPGVGVPGVGVPGVGVPGVGVPGVGVPGVGVPGVGVPGVGVPGVGVPGVGVPGVGVPGVGVPGVGVPGVGVPGVGVPGVGVPGVGVPGVGVPGVGVPGVGVPGVGVPGVGVPGVGVPGVGVPGVGVPGVGVPGVGVPGVGVPGVGVPGVGVPGVGVPGVGVPGVGVPGVGVPGVGVPGVGVPGVGVPGVGVPGVGVPGVGVPGVGVPGVGVPGVGVPGVGVPGVGVPGVGVPGVGVPGVGVPGVGVPGGAIEVKDVTDTTALITWAKPWVDPPPLWGCELTYGIKDVPGDRTTIDLQQKHTAYSIGNLKPDTEYEVSLICFDPYGMRSKPAKETFTTGGGGSGGGGSGGGGSGAIEVKDVTDTTALITWAKPWVDPPPLWGCELTYGIKDVPGDRTTIDLQQKHTAYSIGNLKPDTEYEVSLICFDPYGMRSKPAKETFTTGGGGSGGGGSGGGGSGAIEVKDVTDTTALITWAKPWVDPPPLWGCELTYGIKDVPGDRTTIDLQQKHTAYSIGNLKPDTEYEVSLICFDPYGMRSKPAKETFTTGGGGSGGGGSGGGGSGAIEVKDVTDTTALITWAKPWVDPPPLWGCELTYGIKDVPGDRTTIDLQQKHTAYSIGNLKPDTEYEVSLICFDPYGMRSKPAKETFTTGGGGSGGGGSGGGGS
In the case of B4, the “EC50, cell viability assay on Colo205 cells (concentration required to kill 50% of the cells)” value worked out at 0.08 nM.
